T1: human CD73 antigen protein (ACRO Biosystems, Catalog No. CD3-H52H7) (human, UniProt P21589 27-547)
T1 construct: Bought protein; also called Human CD73 dimer protein; human CD73 protein
T1 sequence (looked up): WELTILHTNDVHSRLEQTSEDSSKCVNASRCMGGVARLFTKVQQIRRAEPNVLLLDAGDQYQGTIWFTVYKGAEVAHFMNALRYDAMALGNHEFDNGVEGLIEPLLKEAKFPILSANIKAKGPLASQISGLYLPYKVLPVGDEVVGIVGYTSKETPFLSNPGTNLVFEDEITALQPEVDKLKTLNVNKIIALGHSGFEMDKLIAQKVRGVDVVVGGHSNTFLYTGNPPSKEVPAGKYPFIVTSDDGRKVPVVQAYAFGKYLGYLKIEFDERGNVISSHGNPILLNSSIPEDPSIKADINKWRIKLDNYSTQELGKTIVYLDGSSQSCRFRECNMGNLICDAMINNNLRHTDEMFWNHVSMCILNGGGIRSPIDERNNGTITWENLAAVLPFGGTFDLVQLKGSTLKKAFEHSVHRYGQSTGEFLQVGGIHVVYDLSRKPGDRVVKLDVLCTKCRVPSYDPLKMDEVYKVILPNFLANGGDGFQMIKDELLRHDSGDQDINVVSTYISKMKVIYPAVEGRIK


How the values were obtained:
[1] = target: T1, human CD73 antigen protein (ACRO …); test: SPR BIAcore 8k, CD73 captured as ligand, analyte 1 buffer, analyte 2 900725
From the text: (§1) First, the human CD73 antigen protein (manufacturer: ACRO Biosystems, Catalog No. CD3-H52H7) was captured as a ligand using BIAcore 8k, and then the antibodies were used as analytes.

[2] = target: T1, human CD73 antigen protein (ACRO …); test: SPR BIAcore 8k, CD73 captured as ligand, 900698 added first (competitor), then 900725
From the text: as §1

[3] = target: T1, human CD73 antigen protein (ACRO …); test: SPR BIAcore 8k, CD73 captured as ligand, 900725 added first (competitor), then 900698
From the text: as §1

[4] = target: T1, human CD73 antigen protein (ACRO …); test: SPR BIAcore 8k, CD73 captured as ligand, analyte 1 buffer, analyte 2 900698
From the text: as §1

| Kd [1] [nM] | koff [1] [s⁻¹] | kon [1] [M⁻¹ s⁻¹] | Kd [2] [nM] | koff [2] [s⁻¹] | kon [2] [M⁻¹ s⁻¹] | Kd [3] [nM] | koff [3] [s⁻¹] | kon [3] [M⁻¹ s⁻¹] | Kd [4] [nM] | koff [4] [s⁻¹] | kon [4] [M⁻¹ s⁻¹] | Binder |
| --- | --- | --- | --- | --- | --- | --- | --- | --- | --- | --- | --- | --- |
| 3.01 | 0.00452 | 1.5e+06 | 4.16 | 0.00591 | 1.42e+06 | – | – | – | – | – | – | 900725 (antibody, human IgG1, kappa, L234A L235A, V domains shown, also called component of the anti-CD73 cocktail antibody) VH: QVQLVQSGAEVKKPGASVKLSCKASGYTFTSYWIHWVRQAPGQGLEWIGMIHPNSGSTYYNEKFKGRATLTVDKSTSTAYMELSSLRSEDTAVYYCARYYGSDYEWYFDVWGQGTTVTVSS VL: DIQMTQSPSSMSASVGDRVTITCKASQNVRTAVVWYQQKPGKAPKALIYLASNRHTGVPDRFSGSGSGTDFTLTISSLQPEDFATYFCLQHWNYPYTFGQGTKLEIKR |
| – | – | – | – | – | – | 12.6 | 0.0017 | 135000 | 7.3 | 0.00114 | 156000 | 900698 (antibody, human IgG1, kappa, L234A L235A, V domains shown, also called component of the anti-CD73 cocktail antibody) VH: QVQLVESGGGLVKPGGSLRLSCAASGFTFSKYAMSWIRQAPGKGLEWVAEISSGGGYINYADSVKGRFTISRDNAKNSLYLQMNSLRAEDTAVYYCARAIYYYGSSYNYYAMDYWGQGTTVTVSS VL: DIQMTQSPSSLSASVGDRVTITCRASQDVGTAEAWYQQKPGKAPKLLIYWASTRHTGVPSRFSGSGSGTDFTLTISSLQPEDFATYYCQQYSSYPLTFGQGTKLEIKR |
